From patent US8541200B2, “Cleavage of fusion proteins using Granzyme B protease” (Hoffmann-La Roche Inc., priority 2003, dated 2013)
Numbering of substitutions follows the chain as printed. Entries after “also recorded” stand apart in the source; their conditions may differ.

Tests used:
[1] = target: FXa (Bos taurus, UniProt P00743); test: Cleavage of fusion proteins by FXa, SDS PAGE; type: biochemical, bovine; conditions: protease:fusion protein 1:1000, 23° C.
Method: (§1) Both H6-IEPD-RAP (SEQ ID NO: 23) and H6-IEGR-RAP were in 100 mM HEPES pH 7.4 and the following incubations were set up at room temperature, 23° C., with the protease:fusion protein ratio 1:1000: • 1. […] 400 μl (app. 400 μg) H6-GrB-RAP+2 μl GrB-H6 (app. 0.4 μg)
250 μl (app. 400 μg) H6Ubi-IEPD-ApoA1+0.4 μg GrB-H6 C228F • 2.

[2] = Colorimetric Granzyme B activity assay with Ac-IEPD-pNA (absorbance at 405 nm); type: biochemical; conditions: for Granzyme B activity ΔOD405/min: pro-IEGR-GrB-H6 incubated with FXa at 4° C.; for completion of self-activation: 4° C., without addition of previously activated Granzyme B; for ΔOD405/min (self-activation): 100 mM HEPES pH 7.5
Method: GrB-H6 activity was measured using the following mix: 500 μl buffer, 2 μl 100 mM Ac-IEPD-pNA, and 5 μl GrB-H6.
Recombinant self-activating human Granzyme B derivatives IEPD-GrB-H6 and IEAD-GrB-H6 were produced as described in Example 2 by using the expression vectors pT7-IEPD-GrB-H6 and pT7-IEAD-GrB-H6 described in Example 1. The IEAD-GrB-H6 and IEPD-GrB-H6 proteins were eluted from the SP Sepharose columns and stored at 4° C. for 2 days before the activity of the respective top fractions were determined by using a colorimetric assay. For this purpose the following was mixed: 500 μl buffer (100 mM HEPES pH 7.5), 2 μl 100 mM Ac-IEPD-pNA, and 5 μl protein solution. The change in absorption was then determined at 405 nm during 3 min. The activity was further determined after additional incubation for 1 and 2 days at 4° C.
The activity of the activated and purified GrB-H6 was measured in different buffers using the Ac-IEPD-pNA substrate: 500 μl buffer, 2 μl 100 mM Ac-IEPD-pNA, and 5 μl GrB-H6. The ΔOD405/min was calculated from the first 0.75 min unless otherwise noted.

[3] = target: T1, GrB-H6 (Homo sapiens, UniProt P10144, R55Q); test: Cleavage of fusion proteins by GrB-H6, SDS PAGE; type: biochemical; conditions: for fusion protein cleaved at IEPD↓ and internal AQPD↓ site: 10 μl GrB-H6, no Ca^2+
T1 construct: MGSIEGR (N, cleaved yes); made in house; host or cells: E. coli BL21
Method: The fusion protein H6-TripUB IEPD↓SP (SEQ ID NO: 22) (prepared as described in Example 7) eluted from the Ni^2+-NTA-agarose column was gel filtrated into 100 mM HEPES pH 7.5 and 200 μl samples of the top-fraction was incubated at room temperature with either 0, 1 or 10 μl of activated GrB-H6 (approximately 0, 0.2 and 2 μg GrB-H6).
With the H6-TripUB IEPD↓SP (SEQ ID NO: 22) fusion protein the following nine incubations (Table 9) were set up using 200 μl H6-TripUB IEPD↓SP (SEQ ID NO: 22) and 5 μl GrB-H6 (approximately 1 μg GrB-H6) for each incubation.
The fusion protein H6-IEPD-RAP (SEQ ID NO: 23) (prepared as described in Example 7) eluted from the Ni^2+-NTA-agarose column was gel filtrated into 100 mM HEPES pH 7.4 and 200 μl samples of the top-fraction was incubated at room temperature with either 0, 1 or 10 μl of activated GrB-H6 (approximately 0, 0.2 and 2 μg GrB-H6). Samples for SDS PAGE were taken after 5, 23 and 26 hours of incubation, see FIG. 10.
as §1
The fusion protein H6-IEPD-TN123 (SEQ ID NO: 25) (prepared as described in Example 7) eluted from the Q Sepharose was after final purification gel filtrated into 100 mM HEPES pH 7.5, and 200 μl samples of the top-fraction was incubated at room temperature with either 0, 1 or 10 μl of activated GrB-H6 (approximately 0, 0.2 and 2 μg GrB-H6) both with and without 5 mM CaCl2 present. Samples for SDS PAGE from the incubations without CaCl2 were taken after 12, 19 and 24 hours as well as 5 days of incubation. Samples for SDS PAGE from the incubations both with and without CaCl2 were taken after approximately 20 and 48 hours of incubation, see FIG. 14.
Each of the fusion proteins eluted from the Ni^2+-NTA-agarose column were gel filtrated into 100 mM HEPES pH 7.4 and fractions of approximately the same concentration of the five different H6-TripUB variants were used. The five variants were H6-TripUB IEPD↓SP (SEQ ID NO: 22), H6-TripUB IQAD↓SP (SEQ ID NO: 26), H6-TripUB IQAD↓SG (SEQ ID NO: 27), H6-TripUB VGPD↓SP (SEQ ID NO: 28) and H6-TripUB VGPD↓FG (SEQ ID NO: 29). Of each fusion protein 200 μl was incubated at room temperature, 23° C., with 5 μl of activated GrB-H6 (approximately 1 μg GrB-H6). The protease:fusion protein ratio was thereby 1:500.

Sequence of FXa (P00743 234-492 limits assumed): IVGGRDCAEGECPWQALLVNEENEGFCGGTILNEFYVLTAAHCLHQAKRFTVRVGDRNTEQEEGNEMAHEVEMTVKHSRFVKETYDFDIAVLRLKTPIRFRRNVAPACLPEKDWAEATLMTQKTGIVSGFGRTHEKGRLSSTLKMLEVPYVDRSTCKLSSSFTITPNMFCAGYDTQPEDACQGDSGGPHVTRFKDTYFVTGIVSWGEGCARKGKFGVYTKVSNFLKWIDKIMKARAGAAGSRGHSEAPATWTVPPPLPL
Sequence of FXa (P00743 41-180 partner limits assumed): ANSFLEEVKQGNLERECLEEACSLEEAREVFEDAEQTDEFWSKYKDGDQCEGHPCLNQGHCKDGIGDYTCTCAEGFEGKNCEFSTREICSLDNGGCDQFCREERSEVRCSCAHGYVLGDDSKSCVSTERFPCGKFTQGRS

## H6-IEGR-RAP: FXa cleavable hexa-His RAP fusion protein with recognition sequence IEGR
[1]; 27 hours
  correctly cleaved product left: no correctly cleaved product left
[1]; ½ hour
  fusion protein correctly cleaved: almost all of the fusion protein has been cleaved

## pro-IEGR-GrB-H6: pro-Granzyme B fusion protein with FXa recognition sequence IEGR and C-terminal hexa-His tag, SEQ ID NO:1
[2]; 0 hours
  Granzyme B activity ΔOD405/min: 0.0073 ΔOD405/min
[2]; 2 hours
  Granzyme B activity ΔOD405/min: 0.0200 ΔOD405/min
[2]; 5 hours
  Granzyme B activity ΔOD405/min: 0.0250 ΔOD405/min
[2]; 19 hours
  Granzyme B activity ΔOD405/min: 0.0829 ΔOD405/min
[2]; 2 days (45 hours)
  Granzyme B activity ΔOD405/min: 0.1325 ΔOD405/min
[2]; 5 days (120 hours)
  Granzyme B activity ΔOD405/min: 0.1832 ΔOD405/min

B1: H6-IEPD-TN123: hexa-His Tetranectin (TN123) fusion protein with Granzyme B recognition site IEPD, SEQ ID NO. 25 (protein)
chain: MGSHHHHHHGSIEPDGEPPTQKPKKIVNAKKDVVNTKMFEELKSRLDTLAQEVALLKEQQALQTVCLKGTKVHMKCFLAFTQTKTFHEASEDCISRGGTLSTPQTGSENDALYEYLRQSVGNEAEIWLGLNDMAAEGTWVDMTGARIAYKNWETEITAQPDGGKTENCAVLSGAANGKWFDKRCRDQLPYICQFGIV
modifications: H6-IEPD-TN123
[3]; 5 mM Ca^2+ added
  internal cleavage at AQPD↓ site: no internal cleavage is observed
[3]; 2 days
  fusion protein cleaved at IEPD↓ and internal AQPD↓ site: almost all the fusion protein has been cleaved twice
[3]; 5 days
  fusion protein cleaved at IEPD↓ and internal AQPD↓ site: almost all of the fusion protein has been cleaved twice
[3]; 200 μl fusion protein + 10 μl GrB-H6, 5 mM Ca^2+, 12 hours
  fusion protein correctly cleaved: approximately 40%
[3]; no Ca^2+ present
  sites cleaved: cleaved correctly at the IEPD sequence, but also just as rapidly at an internal site of the sequence AQPD

B2: H6-IEPD-RAP: hexa-His RAP fusion protein with Granzyme B recognition site IEPD, SEQ ID NO. 23 (protein)
chain: MGSHHHHHHGSIEPDYSREKNQPKPSPKRESGEEFRMEKLNQLWEKAQRLHLPPVRLAELHADLKIQERDELAWKKLKLDGLDEDGEKEARLIRNLNVILAKYGLDGKKDARQVTSNSLSGTQEDGLDDPRLEKLWHKAKTSGKFSGEELDKLWREFLHHKEKVHEYNVLLETLSRTEEIHENVISPSDLSDIKGSVLHSRHTELKEKLRSINQGLDRLRRVSHQGYSTEAEFEEPRVIDLWDLAQSANLTDKELEAFREELKHFEAKIEKHNHYQKQLEIAHEKLRHAESVGDGERVSRSREKHALLEGRTKELGYTVKKHLQDLSGRISRARHNEL
modifications: H6-IEPD-RAP
[3]; 19 possible sites (19 Asp residues)
  GrB-sensitive sites in RAP: only one GrB-sensitive site
[3]; 200 μl fusion protein + 1 or 10 μl GrB-H6, room temperature, 5 hours
  fusion protein cleaved: all the H6-IEPD-RAP (SEQ ID NO: 23) has been cleaved to give the final product; also recorded: all the H6-IEPD-RAP (SEQ ID NO: 23) was cleaved to give the final product
[3]; protease:fusion protein 1:1000, 23° C., ½ hour
  fusion protein correctly cleaved: nearly all the H6-IEPD-RAP (SEQ ID NO: 23) has been cleaved correctly

B3: IEPD-GrB-H6: self-activating human pro-Granzyme B with IEPD recognition site and C-terminal H6, SEQ ID NO:2 (protein)
chain: MGSIEPDIIGGHEAKPHSRPYMAYLMIWDQKSLKRCGGFLIQDDFVLTAAHCWGSSINVTLGAHNIKEQEPTQQFIPVKRPIPHPAYNPKNFSNDIMLLQLERKAKRTRAVQPLRLPSNKAQVKPGQTCSVAGWGQTAPLGKHSHTLQEVKMTVQEDRKCESDLRHYYDSTIELCVGDPEIKKTSFKGDSGGPLVCNKVAQGIVSYGRNNGMPPRACTKVSSFVHWIKKTMKRYLNSHHHHHH
modifications: C-terminal His6 tag; pro-IEPD-GrB-H6
[2]
  completion of self-activation: not completed until after a least three or four days
[2]; stored at 4° C. 2 days
  ΔOD405/min (self-activation): 0.1284 ΔOD405/min
[2]; stored at 4° C. 3 days
  ΔOD405/min (self-activation): 0.1375 ΔOD405/min
[2]; stored at 4° C. 4 days
  ΔOD405/min (self-activation): 0.1351 ΔOD405/min

B4: IEAD-GrB-H6: self-activating human pro-Granzyme B with IEAD recognition site and C-terminal H6, SEQ ID NO:3 (protein)
chain: B3 chain with P6A
modifications: pro-IEAD-GrB-H6
[2]
  completion of self-activation: not completed until after a least three or four days
[2]; stored at 4° C. 2 days
  ΔOD405/min (self-activation): 0.1372 ΔOD405/min
[2]; stored at 4° C. 3 days
  ΔOD405/min (self-activation): 0.1607 ΔOD405/min
[2]; stored at 4° C. 4 days
  ΔOD405/min (self-activation): 0.1983 ΔOD405/min
